In one assay the target is Cyno FcRn (cyno, UniProt Q8SPV9 24-297; Q8SPW0 21-119, limits assumed). The assay can be described thus: SPR, ProteOn XPR36; antibody amine-coupled to GLM chip, FcRn 8-2048 nM as analyte, equilibrium fit, pH 6.0.
In the next assay the target is T1, rat FcRn (rat, UniProt P13599 23-298; P07151 21-119, limits assumed).
T1 sequence (looked up) 1: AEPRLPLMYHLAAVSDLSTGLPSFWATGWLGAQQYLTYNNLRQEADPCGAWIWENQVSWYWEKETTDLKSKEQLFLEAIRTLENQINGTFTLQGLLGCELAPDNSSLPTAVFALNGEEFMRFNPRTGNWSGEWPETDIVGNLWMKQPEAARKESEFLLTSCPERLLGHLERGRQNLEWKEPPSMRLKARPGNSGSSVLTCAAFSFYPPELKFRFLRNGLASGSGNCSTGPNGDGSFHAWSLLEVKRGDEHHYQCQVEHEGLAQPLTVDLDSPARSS
T1 sequence (looked up) 2: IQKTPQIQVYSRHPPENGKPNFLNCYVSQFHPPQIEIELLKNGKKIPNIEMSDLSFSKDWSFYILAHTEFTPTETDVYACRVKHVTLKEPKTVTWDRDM
The assay is described as above.

The next assay has as its target Human FcRn (human, UniProt P55899 24-297; P61769 21-119, limits assumed). The assay is described as above.
A further assay deals with T2, Mouse FcRn (mouse, UniProt Q61559 22-297; P01887 21-119, limits assumed).
T2 sequence (looked up) 1: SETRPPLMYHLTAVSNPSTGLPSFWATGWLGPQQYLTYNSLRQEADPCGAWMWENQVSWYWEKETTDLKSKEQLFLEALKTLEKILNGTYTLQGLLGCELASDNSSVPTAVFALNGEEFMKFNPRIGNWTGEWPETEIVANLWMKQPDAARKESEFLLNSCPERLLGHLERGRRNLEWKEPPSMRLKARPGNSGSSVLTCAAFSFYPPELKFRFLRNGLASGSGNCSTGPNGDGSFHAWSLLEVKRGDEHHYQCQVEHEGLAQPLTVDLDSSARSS
T2 sequence (looked up) 2: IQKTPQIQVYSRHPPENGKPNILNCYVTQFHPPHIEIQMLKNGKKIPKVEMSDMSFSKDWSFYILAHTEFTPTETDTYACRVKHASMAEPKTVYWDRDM
The description is as above.

Assay [1] concerns the target T3, Fcγ3a (Phe) (UniProt P08637 17-208).
T3 construct: also called Fc Gamma IIIa, Phe form
The assay can be described thus: SPR, ProteOn XPR36; antibody amine-coupled to GLM chip, receptor 8-2048 nM as analyte, equilibrium fit, pH 7.4.
Method: (§1) The work was carried out on the ProteOn XPR36 surface plasmon resonance machine (BioRad). The antibodies to be tested were coupled to a GLM biosensor chip by primary amine coupling. […] All binding sensograms were double referenced with a 0 nM injection (i.e. buffer alone). The data was fitted to the Equilibrium model inherent to the ProteOn analysis software.

Assay [2] has as its target T4, Fcγ2a (His) (UniProt P12318 34-217).
T4 construct: also called Fc Gamma IIa, His form
T4 sequence (looked up): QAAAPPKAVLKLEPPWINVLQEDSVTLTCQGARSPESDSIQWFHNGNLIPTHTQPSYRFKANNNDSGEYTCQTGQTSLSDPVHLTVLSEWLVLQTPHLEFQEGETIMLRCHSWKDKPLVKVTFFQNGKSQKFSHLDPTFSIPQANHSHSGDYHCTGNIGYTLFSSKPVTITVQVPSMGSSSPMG
The assay is described as above.
Method: as §1

A further assay has as its target T5, Fcγ1 (UniProt P12314 16-288).
T5 construct: also called Fc Gamma I
The assay is described as above.

Assay [3] has as its target T6, Fcγ (Val) (UniProt P08637 17-208). The description is as above.
Method: as §1
A further assay concerns the target T7, Fcγ2a (Arg) (UniProt P12318 34-217).
T7 construct: also called Fc Gamma IIa, Arg form
T7 sequence (looked up): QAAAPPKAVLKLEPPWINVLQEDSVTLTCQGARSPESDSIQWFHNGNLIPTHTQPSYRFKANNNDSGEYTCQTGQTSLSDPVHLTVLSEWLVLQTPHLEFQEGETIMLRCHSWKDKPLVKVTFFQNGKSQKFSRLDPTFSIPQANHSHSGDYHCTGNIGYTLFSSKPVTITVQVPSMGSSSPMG
The description is as above.

In assay [4] the target is T3, Fcγ3a (Phe). Briefly: SPR, ProteOn XPR36; antibody amine-coupled to GLM chip, receptor as analyte.
Method: as §1
In assay [5] the target is T4, Fcγ2a (His). The assay is described as above.
Method: as §1
The target of assay [6] is T6, Fcγ (Val). Described as above.
Method: as §1
Assay [7] deals with T8, human IL-7Rα (CD127) on cells (human, UniProt P16871 21-459).
T8 chain: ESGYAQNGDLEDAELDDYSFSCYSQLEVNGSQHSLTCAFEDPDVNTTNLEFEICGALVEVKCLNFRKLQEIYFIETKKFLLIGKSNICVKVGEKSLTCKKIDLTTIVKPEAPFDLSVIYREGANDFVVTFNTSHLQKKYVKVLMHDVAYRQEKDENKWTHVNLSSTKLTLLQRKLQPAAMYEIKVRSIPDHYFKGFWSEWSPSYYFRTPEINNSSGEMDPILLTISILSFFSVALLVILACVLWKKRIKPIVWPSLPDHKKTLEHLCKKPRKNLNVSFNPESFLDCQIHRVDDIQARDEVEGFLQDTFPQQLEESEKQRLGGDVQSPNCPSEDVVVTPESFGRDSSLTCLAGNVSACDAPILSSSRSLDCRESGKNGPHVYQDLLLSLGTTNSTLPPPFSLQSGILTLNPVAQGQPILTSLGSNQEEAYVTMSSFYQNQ
The assay can be described thus: cell-based or functional assay.

Human FcRn, sequence (P55899 24-297 limits assumed, chain 1 of 2): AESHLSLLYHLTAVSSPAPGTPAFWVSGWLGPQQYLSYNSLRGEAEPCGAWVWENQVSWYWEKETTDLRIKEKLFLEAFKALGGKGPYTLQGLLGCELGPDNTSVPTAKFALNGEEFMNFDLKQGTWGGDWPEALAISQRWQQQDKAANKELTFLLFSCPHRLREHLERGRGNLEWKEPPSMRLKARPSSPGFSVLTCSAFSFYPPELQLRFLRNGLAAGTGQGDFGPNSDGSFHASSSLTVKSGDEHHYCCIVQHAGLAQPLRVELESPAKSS
Human FcRn, sequence (P61769 21-119 limits assumed, chain 2 of 2): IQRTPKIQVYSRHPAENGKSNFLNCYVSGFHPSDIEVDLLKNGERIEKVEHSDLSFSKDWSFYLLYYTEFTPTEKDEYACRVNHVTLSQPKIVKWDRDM
T3 sequence (P08637 17-208): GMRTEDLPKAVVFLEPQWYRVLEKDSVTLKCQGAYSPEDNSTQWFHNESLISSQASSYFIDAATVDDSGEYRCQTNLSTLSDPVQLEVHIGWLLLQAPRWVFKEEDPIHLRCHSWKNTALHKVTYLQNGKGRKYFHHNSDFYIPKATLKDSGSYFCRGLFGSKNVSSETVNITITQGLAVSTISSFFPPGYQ
T6 sequence (P08637 17-208 F176V): as the sequence (P08637 17-208) above, with F160V counted along it
T5 sequence (P12314 16-288): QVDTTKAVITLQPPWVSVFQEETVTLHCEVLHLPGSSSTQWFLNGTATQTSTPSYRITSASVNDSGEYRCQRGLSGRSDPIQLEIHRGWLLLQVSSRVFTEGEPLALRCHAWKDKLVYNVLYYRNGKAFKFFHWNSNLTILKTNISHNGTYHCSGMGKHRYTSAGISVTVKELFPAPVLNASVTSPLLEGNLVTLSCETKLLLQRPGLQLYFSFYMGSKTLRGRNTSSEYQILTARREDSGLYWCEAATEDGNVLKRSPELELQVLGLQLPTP
Method for Cyno FcRn: as §1
Method for Fcγ1: as §1
Method for Fcγ2a (Arg): as §1
Method for Human FcRn: as §1
Method for Mouse FcRn: as §1
Method for rat FcRn: as §1

B1: 1A11 H3L4 (antibody, IgG1)
heavy: not shown
light: EIVLTQSPATLSLSPGERATLSCSASSSVTYMHWYQQKPGQAPRPLIYEISKLASGIPARFSGSGSGTDFTLTISSLEPEDFAVYYCQEWNYPYTFGGGTKVEIKRTVAAPSVFIFPPSDEQLKSGTASVVCLLNNFYPREAKVQWKVDNALQSGNSQESVTEQDSKDSTYSLSSTLTLSKADYEKHKVYACEVTHQGLSSPVTKSFNRGEC
notes: Humanised IgG1 kappa; also called BPC1142; anti-IL7R 1A11 H3L4; copies: 2 + 2
Regarding B1, the Kd in the assay with Cyno FcRn was 210 nM; with rat FcRn it was 145 nM; in the assay with Human FcRn, 183 nM; with Mouse FcRn, 192 nM; with Fcγ3a (Phe) [1], 990 nM; with Fcγ2a (His) [2] it was 1040 nM. Further, the Kd in the assay with Fcγ1 was found to be 21.4 nM; with Fcγ (Val) [3], 319 nM; in the assay with Fcγ2a (Arg), 1250 nM.

B2: 1A11 H3L4Fc (antibody)
heavy: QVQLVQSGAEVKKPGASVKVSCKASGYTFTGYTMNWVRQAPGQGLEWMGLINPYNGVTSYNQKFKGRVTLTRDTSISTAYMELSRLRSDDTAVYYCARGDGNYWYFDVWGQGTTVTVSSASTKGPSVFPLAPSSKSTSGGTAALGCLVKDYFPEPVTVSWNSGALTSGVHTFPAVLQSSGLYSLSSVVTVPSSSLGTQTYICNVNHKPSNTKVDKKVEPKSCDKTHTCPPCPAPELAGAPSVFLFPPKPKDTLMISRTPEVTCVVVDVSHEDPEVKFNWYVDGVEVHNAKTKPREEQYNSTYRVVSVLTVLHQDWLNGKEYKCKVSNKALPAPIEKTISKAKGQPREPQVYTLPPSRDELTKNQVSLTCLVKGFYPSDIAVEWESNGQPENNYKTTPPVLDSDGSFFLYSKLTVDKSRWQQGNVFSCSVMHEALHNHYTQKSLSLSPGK
light: EIVLTQSPATLSLSPGERATLSCSASSSVTYMHWYQQKPGQAPRPLIYEISKLASGIPARFSGSGSGTDFTLTISSLEPEDFAVYYCQEWNYPYTFGGGTKVEIKRTVAAPSVFIFPPSDEQLKSGTASVVCLLNNFYPREAKVQWKVDNALQSGNSQESVTEQDSKDSTYSLSSTLTLSKADYEKHKVYACEVTHQGLSSPVTKSFNRGEC
notes: also called Fc-disabled anti-IL7R mAb; Fc-disabled 1A11 H3L4; copies: 2 + 2
With B2, the binding result in the assay with Fcγ3a (Phe) [4], with Fcγ2a (His) [5] and in the assay with Fcγ (Val) [6] was “no binding (tested: up to 2048 nM receptor)” throughout. Also, the Kd was found to be 248 nM in the assay with Cyno FcRn, 163 nM with rat FcRn, 158 nM with Human FcRn and 207 nM with Mouse FcRn.

B3: parental 1A11 monoclonal antibody (antibody, V domains shown)
VH: EVQLQQSGPELLKPGASMKISCKASGYSFTGYTMNWVKQSHGKNLEWIGLINPYNGVTSYNQKFKGKATLTVAKSSSTAYMELLSLTSEDSAVYYCARGDGNYWYFDVWGAGTTVTVSS
VL: EIVLTQSPAITAASLGQKVTITCSASSSVTYMHWYQQKSGTSPKPWIYEISKLASGVPVRFSGSGSGTSYSLTISSMEAEDAAIYYCQEWNYPYTFGGGTKLEIK
Regarding B3, the “IC50 of inhibition of IL-7 induced STAT5 phosphorylation in human PBMC (flow cytometry)” value in assay [7] came out at 0.088 µg/mL.
